{"source": "IntAct's records for PubMed 17576925", "parents": {"B1": {"name": "Long-distance movement protein (Groundnut rosette virus (strain MC1)), Q67684 (parent)", "chain": "MDTTPASRGQWPVGIMSSVINVFASGKSCNSGGAPRSSVRRGHRAGAARDKSRGFDAPPRRPKGGVHPATTSKDPNKDIRGPPAPTPHKKYRGPAIPGEGRSGVHTTRPRRRAGRSGGMDPRQLVAQPQQRWAKTEIPTERRAEIDGLLPSLLNTLDGQIQGDAALLRYCVGAIKRELRRRWESVQPAHHVAASSGKPSPQLFNEAAQNAEDLSGDGKGCAGQSVQQEVLHSGSGVPPVCADCGKPAANKW", "partner": "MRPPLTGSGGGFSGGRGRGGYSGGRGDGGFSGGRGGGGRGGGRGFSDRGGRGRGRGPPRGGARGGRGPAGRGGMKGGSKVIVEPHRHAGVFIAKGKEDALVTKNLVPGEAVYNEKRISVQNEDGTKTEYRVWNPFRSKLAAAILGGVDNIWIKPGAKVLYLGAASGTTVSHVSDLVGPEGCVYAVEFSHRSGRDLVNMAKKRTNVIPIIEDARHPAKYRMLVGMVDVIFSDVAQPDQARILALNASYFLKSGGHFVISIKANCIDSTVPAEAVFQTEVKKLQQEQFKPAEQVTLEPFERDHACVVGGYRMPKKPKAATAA"}}}
{"variants_of": "B1", "settings": "with fbrl2_arath FIB2, Q94AH9"}
{"variant": "MDTTPASRGQWPVGIMSSVINVFASGKSCNSGGAPRSSVRRGHRAGAARDKSRGFDAPPRRPKGGVHPATTSKDPNKDIRGPPAPTPHKKYRGPAIPGEGRSGVHTTRPRRRAGRSGGMDPRQLVAQPQQRWAKTEIPTERRAEIDGLAPSLLNTLDGQIQGDAALLRYCVGAIKRELRRRWESVQPAHHVAASSGKPSPQLFNEAAQNAEDLSGDGKGCAGQSVQQEVLHSGSGVPPVCADCGKPAANKW", "note": "[L149A]", "effect of a mutation on the interaction": "disrupting interaction strength"}
